This test addresses T1, HLA A*024 (human).
T1 construct: also called HLA A*024 alleles; HLA-A*24
The test can be described thus: HLA immunoprecipitation from tumour tissue, LC-MS (Example 1).

For the molecule LYQILQGIVF [CDC2-001], the binding result is “binds”.

The values above are taken from US20130045191A1 (IMMATICS BIOTECHNOLOGIES, published 2013).
